# Data as given in the supplement of paper PMC12042874.
# ± gives the uncertainty stated by the source.
# Assay: amyloid nucleation score (Sup35N fusion, yeast selection) (log enrichment); library NNK2; higher = more nucleation; inactive = no reads after selection
# Procedure, shortened: (§1)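 Yeast lacking psi expressed peptides of 20 random codons fused to Sup35N, received 100 μM copper sulfate for 24 hours, and were then grown for 7 days at 30°C on medium lacking adenine and uracil. Illumina sequencing of input and output plasmid inserts provided the reads. Nucleation scores are DiMSum log enrichments of output over input, centred on the mode of non-aggregating sequences. Any sequence with under 100 input reads was excluded.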
row,Substance,amyloid nucleation score
1,NIDSELSCDYD,-0.784 ± 0.76
2,FLNESGSFWCSGFLIWVMRM,-0.568 ± 0.76
3,SRKPSILNLRLALVSG,0.43 ± 0.33
4,VSLRYRKRQWCYRVKWSITD,-1.36 ± 0.48
5,VPLGECIPNFLSTYGGYVVS,-0.287 ± 0.33
6,LSVDQSSSELSTDLFDFLHF,inactive
7,LSLWTIGISPVGYRLTNRHQ,-0.315 ± 1
8,NVDLFWQWVYVYWRGARVEF,0.075 ± 0.43
9,KQGKRSTAHRSIVPLSFRH,1.58 ± 0.14
10,WPSLVLGYDMLGVI,-0.025 ± 1.1
11,IADQTMISRYSRS,5.89 ± 0.084
12,AWNLFLFQSRL,4.7 ± 0.073
13,GGHDCTVPDGFALGWYMTRG,0.995 ± 0.51
14,LSCHSDITILHDYTNLLSFI,-0.007 ± 0.63
15,IREGMWCSRGMHHTRLRDFS,0.671 ± 0.64
16,LIFEEQENAGGMASIMSSMV,0.463 ± 0.3
17,QLENMCFFSPLQTYMLDRNW,-1.47 ± 0.41
18,ALCWVGSYSACLRIFKPSRM,0.521 ± 0.41
19,ECGDRIL,0.536 ± 0.42
20,HYRIWVMHMWDCYWTTNFHG,-0.393 ± 0.63
21,NIVKGFRCLCVNLTDFRETR,4.09 ± 0.12
22,LVSMNFYCMILGIESLFVLS,4.04 ± 0.074
23,MTWGSISNNLVTRTTPTYIC,0.178 ± 0.56
24,FGDYPNSLKWLQE,-0.558 ± 0.63
25,LVCELYI,-0.171 ± 0.39
26,NGTFSCGERVIEINDDSLSD,0.486 ± 0.8

row,Substance,amyloid nucleation score
1,VKNWVISCGGILNDARRLFD,-0.78 ± 1.1
2,VIPSSILLEGYVLLYACYLP,-0.217 ± 0.44
3,EMLYTSFILSLWNNLDFILS,-0.452 ± 0.63
4,PGPAKVANCGWCTYTGGTSH,1.12 ± 0.45
5,YCTSRVTTRSFISDCLTWIR,1.97 ± 0.069
6,RFQELMTK,0.626 ± 0.8
7,VFYTFMTSALGIRVTRSSCL,1.12 ± 0.22
8,KCVSRISSGR,1.03 ± 0.66
9,TCLSRVPPS,-0.797 ± 0.61
10,DTSIW,0.114 ± 0.29
11,YRCFGERIFLHAHRE,inactive
12,RNPVTSIVQVHDKMGRRSKS,inactive
13,FRIKAEVGPIYTYDTGSFNW,-0.162 ± 0.27
14,IRLPPRRAFHNEFFVDLHRG,-1.91 ± 0.76
15,SNGYYSNGPTLLHATTHVTV,-0.431 ± 0.64
16,GVRDVIQL,2.05 ± 0.26
17,WCLLAIFSYCNDPLVLIARR,2.26 ± 0.12
18,IGDYLRLELVL,0.187 ± 0.74
19,ENATFLATCI,-0.217 ± 0.79
20,GHLNFS,-0.166 ± 1.1
21,FEAYYWLADLNLLCYLGVRS,3.79 ± 0.052
22,TKICMASHATVFALYVYCSL,inactive
23,DVFVDMGMLTPKRCRARRGV,0.883 ± 0.34
24,EYVADHGQIADGR,0.782 ± 0.26
25,RIDRFLFASGHEGYAVN,4.507 ± 0.033
26,PKPTYTP,0.292 ± 0.38

row,Substance,amyloid nucleation score
1,MNIAVIHNMVQGSKAPDYHF,4.67 ± 0.075
2,WYHGSASCEYIGYVYPWHAA,3.58 ± 0.064
3,TISLDM,-0.033 ± 0.25
4,KSIRAYYYVSRQ,0.263 ± 0.25
5,AQAMLSNTILIYEYRDLFIV,-0.962 ± 0.78
6,LHCYFFRLMCQSYDRDYKC,-0.249 ± 1
7,IRVICRIWCLFLSL,0.087 ± 0.55
8,LWPCSCFVRRCYECFEGDAG,3.2 ± 0.057
9,NNGPSKT,0.51 ± 0.54
10,GLFWVCAGGGKVGEYRYSGV,0.021 ± 0.39
11,IWGPVLYIMSGYSSVVTRF,6.561 ± 0.055
12,HIGSVVVELLSVRLLWHCMH,5.94 ± 0.088
13,RTLYGALMIVWVS,0.004 ± 1.1
14,TPCIMWKLGLFFVDCCFGFP,4.1 ± 0.12
15,SLDQFSFGC,0.027 ± 0.65
16,FTWLRPRGFS,-0.676 ± 0.27
17,RQLLTKCLCASTGGFIFSWD,0.792 ± 0.8
18,TWKVDF,inactive
19,RFCSMSLSWNYDSC,5.5 ± 0.079
20,GHPSIDAQTPV,1.39 ± 0.47
21,VRWMITHNFRVF,inactive
22,NSLVYCKKPSLPFHHGCK,-0.032 ± 0.42
23,AVYYGSMWLGQGGIVPW,1.93 ± 0.15
24,DTWVLDIMYFSLRYWVFVSV,0.228 ± 1
25,AFYCQRDRVE,3.18 ± 0.099
26,YWTNPYEMFISHYNKVFAFF,-0.436 ± 1.1

row,Substance,amyloid nucleation score
1,LTHWI,-0.284 ± 0.23
2,FFFNVSLHVRNFLEEVSVAS,inactive
3,LYVSALTSVRSWGCGNLVLP,3.37 ± 0.08
4,YIKWQI,2.94 ± 0.065
5,TLLFHTRSYVYICVLVWKQH,0.049 ± 0.8
6,GVGRWIQCQDSWNTNRPSQP,1.52 ± 0.27
7,FGVHVRCSEDDMAFALDLD,0.155 ± 0.28
8,SRIGVLPDNVDTSAKLAYRL,6.95 ± 0.078
9,MCCGCVNVFFMHARHVLGWS,8.977 ± 0.038
10,NTLVSVYEYFSMWGRSCRWS,0.141 ± 0.61
11,KVLFTGFFANVGFSSSVRAN,-0.567 ± 1.1
12,QAISVEVVGYRSNLESFTIW,1.71 ± 0.11
13,YSVGCCLRYYRSN,0.661 ± 0.8
14,FVYSVRS,0.025 ± 0.63
15,SHTPLTG,-0.939 ± 1
16,SGFEDVHAVVRFLIGVQYGG,-0.515 ± 1.1
17,NDNKRYIHYPFLMGFTVSYL,-0.401 ± 0.6
18,YQGMFKFRRFDNVSVVHAMR,-0.359 ± 0.76
19,REGYNAIMYDV,-1.27 ± 0.62
20,SFTFCARNSGLIGWSGDISS,4.07 ± 0.1
21,SKIVYFSYYTQM,6.775 ± 0.049
22,VNGWDWQRYLRILKCFVVY,0.615 ± 0.36
23,DSCRGMVSFCG,-0.399 ± 0.35
24,CSFLSLY,-0.485 ± 0.64
25,STRTSADRSFIIMVWCNIDL,3.62 ± 0.081
26,VLIFRAMIFDDKALVGMKD,-0.521 ± 0.45

row,Substance,amyloid nucleation score
1,ILANFFCGDRNCL,7.128 ± 0.036
2,VSMRMVHGDYKWGRGCLIWI,-0.196 ± 0.45
3,RYPVDRLVMSKRCPALRDGG,0.652 ± 0.23
4,HLSCDWVLIDEGLACYM,-0.586 ± 0.54
5,WSHGHIFIRD,inactive
6,PRPRWRYCFACRLAVFGTVG,6.83 ± 0.036
7,VWCAYWKWLNLSRFNEITAR,-0.202 ± 0.23
8,CNMIYNDKSLPKW,-0.26 ± 0.32
9,LCKYDGCMIAYGVLHSSSAG,0.651 ± 0.26
10,IMNMCISDKFSIVVSSYVRY,0.958 ± 0.36
11,VSRDIIKKVSASNRSMVSDS,0.163 ± 0.56
12,HTKVRGKRLCGDWSVRISCS,0.733 ± 0.29
13,VGSGRLTWT,0.917 ± 0.28
14,VSYVDESHFVNTKSDMPSVS,-0.392 ± 0.63
15,CSSSNINRFS,2.99 ± 0.12
16,YLLFHYGFLN,-1.1 ± 0.63
17,LDALVSWSLECGWYESCWSR,-0.025 ± 0.32
18,DLFLRYY,inactive
19,VGNLRGYVKLVISFSVLRHK,inactive
20,FYIKRVTAVNCDTDSSFNVL,-0.805 ± 0.42
21,NIAKSEILRIWNWW,inactive
22,YWFKSFSWFPVNIVIYNMEK,5 ± 0.094

# Assay: amyloid nucleation score (Sup35N fusion, yeast selection) (log enrichment); library NNK3; higher = more nucleation; inactive = no reads after selection
# Procedure, shortened: as §1
row,Substance,amyloid nucleation score
1,NRASSVSCS,inactive
2,ITYFLWAVFYDGFSMSFFVA,inactive
3,FGSVVGRCSTSFVYRLINIR,0.65 ± 0.17
4,KSLSGVIREENRDARGFWRS,inactive
5,VYFHSGSARFNTGTQL,inactive
6,SISMQVNHPEY,inactive
7,SSMLI,inactive
8,YITVRR,-0.297 ± 1.1
9,WFSSKRDLR,inactive
10,LFCLLLHNIGKFRYMFY,inactive
11,KCRGGRETIRLRRSLWVFMV,inactive
12,DIQNFHQKTKGCLLFVWRRQ,inactive
13,YRYMVRITCGCFHAVNDT,1.19 ± 0.14
14,KYMGAVFYIIHRTEERYF,0.874 ± 0.13
15,FNNFRFTGQHR,inactive
16,SGIVLESLLISRFFKGFHRD,0.926 ± 0.25
17,KFYDSISRLQNERGPVIFPR,inactive
18,AWVDWKWRNGRSLAS,inactive
19,HLAHLSRSLSVKSSSVMKGH,inactive
20,RWPEPFSWFRFDYQIRDVVF,inactive
21,YVNLCLGANPRSYMFKYGTH,0.197 ± 0.66

row,Substance,amyloid nucleation score
1,EAKLVGGFTDFRELITNCLV,1.01 ± 0.17
2,SWKARDYRGSVLGSIIRDFN,inactive
3,HIVKKFPSPMRITWCGSPFQ,inactive
4,LLNYFRLMCYRSFL,inactive
5,FPMCFSFHLIGQ,inactive
6,AWGYYPSLCGKEDVYSWGWG,inactive
7,STTIGF,inactive
8,QLMYRE,inactive
9,SMHYAQYIIIYWRMSSRVYD,inactive
10,SVMSLDVVMVVRYFY,0.999 ± 0.12
11,NNTDCYESNVVFFSTAIHLS,1.6 ± 0.12
12,TASCEYFELQPIKNLH,inactive
13,FRSEVGVNFNRTLWRYNRVY,inactive
14,FYCGFAMGFILCCQNYTFVT,2.63 ± 0.076
15,NNTSGNLVCFSVKCNVIVPY,2.42 ± 0.056
16,VSVCLKELHQ,inactive
17,YRPFWSA,inactive
18,SSDILASFGCYSNFHLSHII,inactive
19,YKSSNRSFFGIMANQPRLGC,inactive
20,FHPFFIGVGSFLGSLHEFQS,inactive
21,SIVQLNYTELAVKWSLVS,inactive
